Measurements taken from patent publication US20240043514A1, “NOVEL METHOD FOR PRODUCING ANTIBODIES” (TSINGHUA UNIVERSITY, priority 2017, published 2024).

Legend:
Format in all cases: cell-based, human
[1] = system: AICDA, BLIMP-1, RAG expression; experiment: Quantitative RT-PCR of AICDA, BLIMP-1 and RAG mRNA in immunized PBMCs
Description: Quantitative RT-PCR was carried out with a BioRad iCycler and the 2-(ΔΔCT) method was used to calculate relative mRNA expression levels normalized to GAPDH.
AID is known to be involved in B cell affinity maturation by inducing hyper-mutation in antibody genes. Expression of BLIMP-1 represents the proliferation and differentiation of active B cell. To test the effect of TLR agonists on the expression of AID, mRNA levels of AICDA (that encoding AID) after treatment with the synthesized TLR7/8 agonist (500 nM), in comparison with that of CD40L (55 nM), was determined by quantitative RT-PCR. PBMCs were collected from two different donors (see FIG. 8, donor 3 and donor 4). […]
To test the effect of TLR7 agonist imiquimod on the expression of AICDA and BLIMP-1, mRNA levels of AICDA and BLIMP-1 after IVI in the presence of the TLR7 agonist imiquimod (500 nM), was determined by quantitative RT-PCR, in comparison with that of CD40L (FIG. 9). […]
AICDA, RAG gene expression of the harvested cells was also measured by RT-qPCR analysis respectively. […] Data are expressed as means±SEM of triplicate independent samples (****P<0.0001, **P<0.001, by 1-way ANOVA with Sidak's multiple comparisons test).

[2] = system: PBMCs; experiment: In vitro immunization (IVI) of PBMCs, antigen-specific IgG/IgM production by ELISA; conditions: for IgG production compared with Basic alone / IgM production compared with Basic alone: FIG. 19; for antigen specificity of antibody production (anti-OVA IgG vs anti-OVA IgM and anti-BSA IgG): basic + OVA, 14 days, FIGS. 20A-20C
Description: PBMCs were washed and diluted with PIV culture medium. Cell density was adjusted to 1*10^^7 cells/ml, treateder with 0.25 mM LLME for about 20 min. Discarded supernatant, and re-suspended cell with PIV culture medium. Adjusted cell density to 9*10^^5 cells/ml. […] Cultured the tissue for 7 days at 37° C., 5% CO2. Changed half of the medium and added factor cocktail on day 7. Cultured the cells for 7-21 days at 37° C., 5% CO2. Collected the supernatant on day 7, day 14, or day 21 for analysis of antibody production by ELISA, whereas the pellets are used for testing gene expression by PCR or RT-PCR. The collected cells were also tested in ELISpot assay for FACS analysis.
Exemplary IVI steps with addition of stimulate factors: • 1. Prepared PBMCs and treat them with LLME. • 2. […] Collected the cells and plate them into 96-well plate at a density of 6*10^4/well. • 4. […] The IgG and IgM level was examined with ELISA assay.
After day7 or day14 with addition of cytokines or antibody-enhancing composition and antigens, supernatants were harvested and added to antigen OVA-coated plates. After 2 hr incubation, a HRP-conjugated anti-human IgG or anti-human IgM was added, the amount of antigen-specific antibody was measured using TMB as substrate. The data represents the mean of 2 replicates; error bars represent SD. One representative data of 3 separate experiments is shown.
Plates were coated with antigen at 5 μg/ml overnight at 4° C. and washed them in PBST (containing 0.5% Tween-20). The plates were blocked with 5% BSA before addition of cell culture supernatants and horseradish peroxidase (HRP)-conjugated detection antibodies (dilutions: 1 in 2,500 for HRP-conjugated IgG-specific antibody (Jackson) and HRP-conjugated IgM-specific antibody. TMB substrates solution was used for measurement. […]
To further test effects of other cytokine or molecules on antibody production, a synthesized TLR7/8 agonist (50 nM and 500 nM) was added to the IVI system in the presence of antigen OVA (2 μg/ml).
An exemplary cytokine, IL1β, was tested. PBMCs were incubated in vitro with OVA, basic, and either some of the known stimulating factors ICOS, CD40L, TLR7/8 agonists or IL1β (in different doses) (1.5*10^^5 cell/well, 96 well plate). After 7 or 14 days, supernatants were harvested, and IgG/IgM antibody production was measured by ELISA assay.

[3] = system: GC like B cells within PBMCs; experiment: FACS analysis of GC like B cells (CD3-CD19+GL7+Fas+) after in vitro immunization
Description: We analyzed stained cells on an […] (BD) and processed flow cytometry data with FlowJo software (Tree Star). PBMCs were collected into Snap-lock microtubes. For analysis of T cells or B cells, tubes were kept at 4° C. unless mentioned otherwise. After centrifugation, cells were washed and resuspended in PBS. For analysis of T follicular helper cells, PBMCs were stained with antibodies of CD3−FITC (BD), CD4− PerCP−Cy™5.5 (BD), CXCR5−PE/Cy7 (Biolegend), and CD45RA-PE(eBioscience), respectively. T follicular helper cells were identified with CD3^+CD4^+CXCR5^+CD45RA^−. For analysis of GC like B-cells, PBMC was stained with antibodies of CD19-PE (eBioscience), GL7− Alexa Fluor 488 (eBioscience), Fas-APC (eBioscience). GC like B-cells were defined as CD19^+GL7^+Fas^+.
After FACS sorting, GC like B cells are gated as CD3^−, CD19^+, GL7^+, Fas^+ cells. Numbers within the gates represent the GC like B cells of different groups. […] The ratio of GC like B cells is about 85.25% (FIG. 5B). Similarly, the PBMCs treated with ICOS. The ratio of GC like B cells is about 90.42% (FIG. 5C).
In the same way, PBMCs were incubated in vitro with OVA, basic, and CCL1 (1 μg/ml). After 7 days, cells were harvested, and single cell is sorting with CD19, CD3, GL7, FAS antibody as specific markers, dead cells are excluded by staining with DAPI. GC like B cells are gated as CD3−CD19+GL7+Fas+ cells. […]

Molecule: CC(C)Cn1cnc2c(N)nc3ccccc3c21 [imiquimod, reference compound]
- expression of AICDA and BLIMP-1 compared with CD40L ([1]; OVA, basic, agonist 500 nM, FIG. 8 and FIG. 9): far superior to CD40L

Molecule: CXCL2: Human C-X-C motif chemokine 2
- IgG production compared with Basic alone ([2]; in vitro for 14 days, OVA): better than Basic alone

Molecule: CXCL5: Human C-X-C motif chemokine 5
- IgG production compared with known stimulating factors ([2]; CXCL5 20 ng/ml, in vitro for 14 days): inferior to TLR7/8 agonist but better than ICOS and CD40L
- antigen specificity of antibody production (anti-OVA IgG vs anti-OVA IgM and anti-BSA IgG) [2]: similarly stimulate the activation of OVA-specific B cells
- IgG production, dose relation ([2]; in vitro for 14 days, OVA, basic, FIG. 18): dose-dependent

Molecule: IL1β: Human interleukin-1 beta, adipose tissue-derived secretory protein
- antigen specificity of antibody production (anti-OVA IgG vs anti-OVA IgM and anti-BSA IgG) [2]: promotes generation of anti-OVA IgG in a high level

Molecule: IL21: interleukin-21, cytokine; part of 'basic' medium at 50 ng/ml
- production of anti-TrkA antibody IgG / IgM by individual stimulants ([2]; antigen TrkA, individual stimulants, day 7, IL21 50 ng/ml): stimulated the production of antibody IgG but not IgM

B1: CXCL16: Mouse chemokine (C-X-C motif) ligand 16 (protein, UniProt Q8BSU2 27-246, looked up)
C-X-C motif chemokine 16: NQGSVAGSCSCDRTISSGTQIPQGTLDHIRKYLKAFHRCPFFIRFQLQSKSVCGGSQDQWVRELVDCFERKECGTGHGKSFHHQKHLPQASTQTPEAAEGTPSDTSTPAHSQSTQHSTLPSGALSLNKEHTQPWEMTTLPSGYGLEARPEAEANEKQQDDRQQEAPGAGASTPAWVPVLSLLAIVFFLTAAMAYVLCNRRATQQNSAGLQLWYTPVEPRP
- IgG production compared with Basic alone ([2]; in vitro for 14 days, OVA): better than Basic alone
- IgM production compared with Basic alone ([2]; in vitro for 14 days, OVA): better than Basic alone

B2: CCL4: Recombinant Human C-C motif chemokine 4 (protein, UniProt P13236 24-92, looked up)
C-C motif chemokine 4: APMGSDPPTACCFSYTARKLPRNFVVDYYETSSLCSQPAVVFQTKRSKQVCADPSESWVQEYVYDLELN
- IgG production compared with Basic alone ([2]; in vitro for 14 days, OVA): better than Basic alone
- IgM production compared with Basic alone ([2]; in vitro for 14 days, OVA): better than Basic alone

B3: CCL1: Recombinant Human C-C motif chemokine 1 (protein, UniProt P22362 24-96, looked up)
C-C motif chemokine 1: KSMQVPFSRCCFSFAEQEIPLRAILCYRNTSSICSNEGLIFKLKRGKEACALDTVGWVQRHRKMLRHCPSKRK
- antigen-specific antibody production, CCL1 plus TLR7/8 agonists and basic vs TLR7/8 agonists and basic only ([2]; R848 1 μg/ml, 7 days, FIG. 25A): significantly increased
- AICDA and RAG gene expression, CCL1 plus TLR7/8 and basic vs TLR7/8 and basic only ([1]; 7 days, RT-qPCR, FIGS. 25B-25C): increased expression level of AICDA and RAG genes
- GL7+FAS+ cell ratio, CCL1 plus TLR7/8 and basic vs TLR7/8 and basic only ([3]; 7 days, FIG. 25D): increases

B4: IL27: Recombinant Human Interleukin 27 (protein, UniProt Q8NEV9 29-243; Q14213 21-229, looked up)
Interleukin-27 subunit alpha: FPRPPGRPQLSLQELRREFTVSLHLARKLLSEVRGQAHRFAESHLPGVNLYLLPLGEQLPDVSLTFQAWRRLSDPERLCFISTTLQPFHALLGGLGTQGRWTNMERMQLWAMRLDLRDLQRHLRFQVLAAGFNLPEEEEEEEEEEEEERKGLLPGALGSALQGPAQVSWPQLLSTYRLLHSLELVLSRAVRELLLLSKAGHSVWPLGFPTLSPQP
Interleukin-27 subunit beta: RKGPPAALTLPRVQCRASRYPIAVDCSWTLPPAPNSTSPVSFIATYRLGMAARGHSWPCLQQTPTSTSCTITDVQLFSMAPYVLNVTAVHPWGSSSSFVPFITEHIIKPDPPEGVRLSPLAERQLQVQWEPPGSWPFPEIFSLKYWIRYKRQGAARFHRVGPIEATSFILRAVRPRARYYVQVAAQDLTDYGELSDWSLPATATMSLGK
- IgG production compared with Basic alone ([2]; in vitro for 14 days, OVA): better than Basic alone
- IgM production compared with Basic alone ([2]; in vitro for 14 days, OVA): better than Basic alone

B5: CXCL13: Recombinant Human chemokine (C-X-C motif) ligand 13 (protein, UniProt O43927 23-109, looked up)
C-X-C motif chemokine 13: VLEVYYTSLRCRCVQESSVFIPRRFIDRIQILPRGNGCPRKEIIVWKKNKSIVCVDPQAEWIQRMMEVLRKRSSSTLPVPVFKRKIP
- IgM production compared with Basic alone ([2]; in vitro for 14 days, OVA): better than Basic alone

B6: CCL8: Human chemokine (C-C motif) ligand 8 (protein, UniProt P80075 24-99, looked up)
C-C motif chemokine 8: QPDSVSIPITCCFNVINRKIPIQRLESYTRITNIQCPKEAVIFKTKRGKEVCADPKERWVRDSMKHLDQIFQNLKP
- IgG production compared with known stimulating factors ([2]; OVA, basic, FIG. 17): inferior to TLR7/8 agonist but better than ICOS and CD40L
- antigen specificity of antibody production (anti-OVA IgG vs anti-OVA IgM and anti-BSA IgG) [2]: similarly stimulate the activation of OVA-specific B cells

B7: CD40L: CD154, CD40 Ligand protein (protein, UniProt P29965 113-261, looked up)
CD40 ligand, soluble form: MQKGDQNPQIAAHVISEASSKTTSVLQWAEKGYYTMSNNLVTLENGKQLTVKRQGLYYIYAQVTFCSNREASSQAPFIASLCLKSPGRFERILLRAANTHSSAKPCGQQSIHLGGVFELQPGASVFVNVTDPSQVSHGTGFTSFGLLKL
- regulation of IgG and IgM responses with dose ([2]; ICOS 24-100 nM, CD40L 10-55 nM, TLR7/8 agonist 0.1-500 nM, OVA, IL2, IL21): dose-dependent manner
- IgG production on co-stimulation with IL2 and IL21 ([2]; OVA 4 ug/ml, IL2 10 ng/ml, IL21 50 ng/ml, 24 nM ICOS, 55 nM CD40L, 500 nM TLR7/8 agonist, 7 or 14 days): synergistic, complimentary effects on enhanced IgG production
- ratio of GC like B cells ([3]; antigen OVA 2 μg/ml, IL2 10 ng/ml + IL21 50 ng/ml (basic), sorted on day 14): about 85.25%
